The values that follow are results of earlier work, collected in article PMC5742237.

pKd: −log10 of the molar value. Read-outs that look alike come from different tables or passages of the source.

The target of data set [1] is Transhydrogenase domain I dimer domain I (Rhodospirillum rubrum) (UniProt Q2RSB2).
The target is the same in data set [2]. This is another data set of the same source.

Chain of UniProt Q2RSB2 (Q2RSB2 whole entry, the tested form may be a part): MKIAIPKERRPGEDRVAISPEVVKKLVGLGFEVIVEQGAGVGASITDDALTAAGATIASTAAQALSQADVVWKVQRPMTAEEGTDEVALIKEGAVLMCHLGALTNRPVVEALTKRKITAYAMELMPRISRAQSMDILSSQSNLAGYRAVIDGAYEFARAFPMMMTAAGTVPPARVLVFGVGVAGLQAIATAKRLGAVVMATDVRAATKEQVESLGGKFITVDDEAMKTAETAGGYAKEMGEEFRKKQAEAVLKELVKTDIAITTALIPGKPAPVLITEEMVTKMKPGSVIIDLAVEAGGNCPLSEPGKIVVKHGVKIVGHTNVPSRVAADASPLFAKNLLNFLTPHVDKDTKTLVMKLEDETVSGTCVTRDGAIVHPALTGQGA

On to “Transhydrogenase domain III (second) domain III (from UniProt Q2RSB4)”, for which the pKd in data set [1] was 5.00. “Transhydrogenase domain III domain III (from UniProt Q2RSB4)”: the pKd in data set [2] was greater than 7.22.
